Results on one substance are retold here after patent publication US20240124553A1.

As a reminder, the Kd is the free concentration of one partner at which half of the binding sites on the other are occupied at equilibrium, for simple one-to-one binding. Read a high Kd as a looser complex. The kon is a measure of how fast the partners come together. A high value points to fast association.

Assay [1] deals with CHIKV virus-like particles (strain 37997) (chikungunya virus). The experiment in a line: SPR, […], kinetic fit ([…].
Assay [2] has the same target.
For assay [3] the target is unchanged. This is another data set of the same source.
Assay [4] shares this target. This is another data set of the same source.
The target is the same in assay [5]. This is another data set of the same source.
Assay [6] has the same target. This is another data set of the same source.
Assay [7] concerns the target CHIKV strain 181/25 (virions; also E2-E1 shown on infected cells) (chikungunya virus). Briefly: cryo-EM of infectious CHIKV with Mxra8.

Several values for one entry are separate records, joined by “and”; a condition that tells them apart may be missing. Equal entries are not always repeated. Where two headings read alike, the source gives them in different places.

Turning to “Mxra8 cleaved from Mxra8-HRV-Fc (soluble monomeric mouse Mxra8) (from UniProt Q9DBV4 23-336) (receptor)”, the dissociation constant (Kd) was 83.9 nM and 270 nM in assay [1]; 84 nM and 270 nM in assay [2]; 60 nM and 300 nM in assay [3]; 183 nM and 224 nM in assay [4]; 200 nM in assay [6]. The substance also registered a kon in assay [4] of 37000 M⁻¹ s⁻¹. In assay [4], this substance displayed a t1/2 of 1.8 min. Moreover, in assay [5], the Mxra8 molecules per virion (molecules per virion) was determined as 240. In assay [7], the Mxra8 proteins bound per particle (proteins per particle) is 60.
